Four molecules from patent EP3574020B1 (The University of British Columbia, dated 2024) can be followed below.

The target in assay [1] is T1, commercially-prepared stable A-beta42 Oligomers (SynAging) (human).
T1 construct: Bought oligomer preparation; also called AbO; SynAging AbO
Nature of the assay: ProteOn biosensor; antibody captured with anti-mouse IgG or amine-coupled, AbO dilutions injected.

Assay [2] concerns the target T2, cyclo(CGHHQKG) cyclic peptide, conjugated to BSA (also: conjugated to BSA, site not given here).
T2 construct: BSA is the carrier used for screening; also called cyclopeptide; Cyclo-BSA
T2 peptide: cyclo(CGHHQKG)
The assay is described as follows: single cycle Biacore analysis. (Surface plasmon resonance follows binding to a sensor surface in real time, without labels.)

Assay [3] deals with T2, cyclo(CGHHQKG) cyclic peptide, …. The assay is described as follows: ProteOn biosensor; antibody amine-coupled to GLH chip, cyclo-BSA 9 nM to 111 pM.
For assay [4] the target is unchanged. Nature of the assay: SPR; immobilized antibody pre-exposed to the cyclic peptide.

T1 sequence (peptide, as listed by the source): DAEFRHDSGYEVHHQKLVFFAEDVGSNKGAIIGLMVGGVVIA

B1: 301-17 mouse monoclonal antibody, hybridoma-purified IgG3 (antibody, V domains shown)
VH: QVQLQQPGAELVKPGASVKMSCKASGYSFTSYWINWVKQRPGQGLEWIGDVHPGRGVSTYNAKFKSKATLTLDTSSSTAYMQLSSLTSEDSAVYYCSRSHGNTYWFFDVWGAGTTVTVSSATTTAPS
VL: DVLMTQTPLSLPVSLGDQASISCRSSQSIVHSNGNTYLEWYLQKPGQSPKLLIYKVSNRFSGVPDRFSGSGSGTDFTLKISRVEAEDLGVYYCFQGSHVPFTFGSGTKLEIKRADA
notes: mouse IgG3 / kappa; also called mu301-17
Broadly, the Kd is the equilibrium constant for the complex coming apart. For the molecule B1, the Kd in assay [1] is 26.9 nM; in assay [2], 0.4 nM.

B2: Recombinant 301-17 IgG2a (murine IgG2a backbone) (antibody)
heavy: QVQLQQPGAELVKPGASVKMSCKASGYSFTSYWINWVKQRPGQGLEWIGDVHPGRGVSTYNAKFKSKATLTLDTSSSTAYMQLSSLTSEDSAVYYCSRSHGNTYWFFDVWGAGTTVTVSSAKTTAPSVYPLAPVCGDTTGSSVTLGCLVKGYFPEPVTLTWNSGSLSSGVHTFPAVLQSDLYTLSSSVTVTSSTWPSQSITCNVAHPASSTKVDKKIEPRGPTIKPCPPCKCPAPNLLGGPSVFIFPPKIKDVLMISLSPIVTCVVVDVSEDDPDVQISWFVNNVEVHTAQTQTHREDYNSTLRVVSALPIQHQDWMSGKEFKCKVNNKDLPAPIERTISKPKGSVRAPQVYVLPPPEEEMTKKQVTLTCMVTDFMPEDIYVEWTNNGKTELNYKNTEPVLDSDGSYFMYSKLRVEKKNWVERNSYSCSVVHEGLHNHHTTKSFSRTPGK
light: DVLMTQTPLSLPVSLGDQASISCRSSQSIVHSNGNTYLEWYLQKPGQSPKLLIYKVSNRFSGVPDRFSGSGSGTDFTLKISRVEAEDLGVYYCFQGSHVPFTFGSGTKLEIKRADAAPTVSIFPPSSEQLTSGGASVVCFLNNFYPKDINVKWKIDGSERQNGVLNSWTDQDSKDSTYSMSSTLTLTKDEYERHNSYTCEATHKTSTSPIVKSFNRNEC
In the case of B2, the values for the Kd in assay [3] and in assay [1] were approximately 0.017 nM and 16.2 to 19.5 nM, respectively.

B3: Humanized antibody of 301-17 (VH2 Vk5), human IgG4 (S241P hinge variant) / kappa (antibody, V domains shown)
VH: QVQLVQSGAEVKKPGASVKMSCKASGYSFTSYWINWVKQRPGQGLEWIGDVHPGRGVSTYNAKFKSRATLTLDTSISTAYMELSSLRSEDTAVYYCSRSHGNTYWFFDVWGQGTTVTVSS
VL: DVLMTQSPLSLPVTLGQPASISCRSSQSIVHSNGNTYLEWYQQRPGQSPRLLIYKVSNRFSGVPDRFSGSGSGTDFTLKISRVEAEDVGVYYCFQGSHVPFTFGQGTKLEIKR
notes: also called hu301-17
In the case of B3, the binding result in assay [4] is “binds”.

B4: Chimeric 301-17 antibody (VH0 Vk0), mouse variable regions on human IgG4 / kappa (antibody)
heavy: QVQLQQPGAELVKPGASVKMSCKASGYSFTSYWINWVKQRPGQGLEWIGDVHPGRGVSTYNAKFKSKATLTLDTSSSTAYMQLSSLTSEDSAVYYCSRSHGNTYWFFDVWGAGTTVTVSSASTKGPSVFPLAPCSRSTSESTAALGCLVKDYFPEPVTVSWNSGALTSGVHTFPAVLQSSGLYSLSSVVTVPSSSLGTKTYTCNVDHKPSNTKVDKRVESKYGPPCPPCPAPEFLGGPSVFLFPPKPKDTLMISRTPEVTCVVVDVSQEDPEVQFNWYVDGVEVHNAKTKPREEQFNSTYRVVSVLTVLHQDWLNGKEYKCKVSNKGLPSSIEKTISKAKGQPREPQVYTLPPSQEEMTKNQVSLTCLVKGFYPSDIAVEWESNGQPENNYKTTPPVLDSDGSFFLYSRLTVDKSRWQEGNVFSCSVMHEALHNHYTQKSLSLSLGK
light: DVLMTQTPLSLPVSLGDQASISCRSSQSIVHSNGNTYLEWYLQKPGQSPKLLIYKVSNRFSGVPDRFSGSGSGTDFTLKISRVEAEDLGVYYCFQGSHVPFTFGSGTKLEIKRTVAAPSVFIFPPSDEQLKSGTASVVCLLNNFYPREAKVQWKVDNALQSGNSQESVTEQDSKDSTYSLSSTLTLSKADYEKHKVYACEVTHQGLSSPVTKSFNRGEC
notes: also called V0H0 and V0k0
Consider B4, for which the Kd in assay [2] is approximately 0.02 nM.
